# Test results published in the supplement of paper PMC6755084.
# B1: F1*; the commonest letter at each place (parent)
# chain: GAGACCGCAACTGAAAAGTTGTTATCACTTGTCGTAAGACACTTTGGATGGGTTGAAGTTCTGCACGTAGAAGCAAAAGGC
# Variants of: B1
# Assay: fraction ligated after 30 min (ligated reads / total reads); higher = more ligase activity
# Conditions: with F1*sub RNA substrate (template-directed ligation), 42 °C
# Method in brief: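 Oligo-pool templates of ligase ribozyme variants were PCR-amplified, T7-transcribed and gel-purified. Ligated and unligated bands were gel-separated, reverse transcribed with barcoded primers, and MiSeq-sequenced; core bases were filtered at quality ≥20. Fraction ligated per variant was ligated reads over total reads.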
row,Variant,fraction ligated
1,T35A A57G,0.847
2,T35A A57T,0.809
3,T35A A57C,0.82
4,T35A T45C,0.788
5,T35A T45A,0.797
6,T35A T45G,0.408
7,A36G A41G,0.788
8,A36G A41T,0.834
9,A36G A41C,0.795
10,A36G C40G,0.841
11,A36G C40A,0.829
12,A36G C40T,0.861
13,T35A G50T,0.792
14,T35A G50A,0.638
15,T35A G50C,0.474
16,T35C T49G,0.804
17,T35C T49C,0.731
18,T35C T49A,0.756
19,A36G T45A,0.785
20,A36G T45G,0.353
21,A36G T45C,0.614
22,A36C T43A,0.82
23,A36C T43C,0.806
24,A36C T43G,0.797

row,Variant,fraction ligated
1,G34T T43C,0.782
2,G34T T43A,0.827
3,G34T T43G,0.793
4,A36G T49C,0.4
5,A36G T49G,0.761
6,A36G T49A,0.725
7,T35A G38C,0.855
8,T35A G38T,0.855
9,T35A G38A,0.863
10,T35C T45A,0.748
11,T35C T45G,0.399
12,T35C T45C,0.783
13,G34T T35G,0.847
14,G34T T35C,0.81
15,G34T T35A,0.854
16,T35C T43A,0.839
17,T35C T43C,0.777
18,T35C T43G,0.797
19,T35A T44A,0.838
20,T35A T44C,0.826
21,T35A T44G,0.821
22,G34T A39C,0.779
23,G34T A39T,0.804
24,G34T A39G,0.808

row,Variant,fraction ligated
1,T35C T44A,0.851
2,T35C T44C,0.841
3,T35C T44G,0.823
4,T35C A37C,0.845
5,T35C A37T,0.847
6,T35C A37G,0.881
7,G34T T49A,0.756
8,G34T T49G,0.772
9,G34T T49C,0.633
10,T35A A39C,0.828
11,T35A A39G,0.851
12,T35A A39T,0.838
13,A36C A39G,0.826
14,A36C A39C,0.803
15,A36C A39T,0.802
16,A36G T43G,0.776
17,A36G T43C,0.81
18,A36G T43A,0.823
19,T35A A48C,0.752
20,T35A A48G,0.801
21,T35A A48T,0.8
22,T35A A41T,0.831
23,T35A A41G,0.811
24,T35A A41C,0.792

row,Variant,fraction ligated
1,T35A G55A,0.868
2,T35A G55C,0.819
3,T35A G55T,0.834
4,T35G T43G,0.801
5,T35G T43A,0.819
6,T35G T43C,0.807
7,A36C G46A,0.793
8,A36C G46T,0.778
9,A36C G46C,0.784
10,T35G G50A,0.659
11,T35G G50T,0.795
12,T35G G50C,0.486
13,G34T G38T,0.82
14,G34T G38A,0.836
15,G34T G38C,0.83
16,A36G G47C,0.0195
17,A36G G47A,0.764
18,A36G G47T,0.0714
19,T35C A41C,0.777
20,T35C A41T,0.819
21,T35C A41G,0.783
22,A36G G50C,0.117
23,A36G G50T,0.751
24,A36G G50A,0.41

row,Variant,fraction ligated
1,A36C A57T,0.844
2,A36C A57C,0.813
3,A36C A57G,0.816
4,T35C G46C,0.792
5,T35C G46A,0.829
6,T35C G46T,0.778
7,T35A T43C,0.794
8,T35A T43G,0.807
9,T35A T43A,0.84
10,G34T T44C,0.811
11,G34T T44A,0.792
12,G34T T44G,0.842
13,T35G G55A,0.819
14,T35G G55T,0.809
15,T35G G55C,0.807
16,G34T A37G,0.829
17,G34T A37T,0.843
18,T35C A57C,0.813
19,T35C A57T,0.825
20,T35C A57G,0.822
21,G34T C42A,0.849
22,G34T C42T,0.848
23,G34T C42G,0.841
24,A36G A37G,0.864

row,Variant,fraction ligated
1,A36G A37C,0.835
2,A36G A37T,0.872
3,G34T A56C,0.805
4,G34T A56G,0.785
5,G34T A56T,0.793
6,A36C C40G,0.818
7,A36C C40T,0.818
8,A36C C40A,0.804
9,A36G G55C,0.773
10,A36G G55A,0.867
11,A36G G55T,0.809
12,G34T G55T,0.81
13,G34T G55C,0.796
14,G34T G55A,0.835
15,A36T A41T,0.819
16,A36T A41C,0.774
17,A36T A41G,0.794
18,T35A G47C,0.221
19,T35A G47T,0.398
20,T35A G47A,0.811
21,T35A G46T,0.783
22,T35A G46A,0.837
23,T35A G46C,0.799
24,A36C A41C,0.782

row,Variant,fraction ligated
1,A36C A41T,0.814
2,A36C A41G,0.741
3,G34T A41G,0.768
4,G34T A41C,0.755
5,G34T A41T,0.763
6,A36G T44A,0.848
7,A36G T44C,0.85
8,A36G T44G,0.856
9,A36T A48C,0.767
10,A36T A48G,0.781
11,T35G A57G,0.838
12,T35G A57C,0.805
13,T35G A57T,0.804
14,A36C A37G,0.825
15,A36C A37C,0.821
16,A36C A37T,0.837
17,T35G A41T,0.839
18,T35G A41C,0.808
19,T35G A41G,0.816
20,T35C G55C,0.796
21,T35C G55A,0.841
22,T35C G55T,0.804
23,T35G C42T,0.838
